According to PMC4741438, “Targeting the SIN3A-PF1 interaction inhibits epithelial to mesenchymal transition and maintenance of a stem cell phenotype in triple negative breast cancer” (Oncotarget, 2015):

Target: PAH2 domain of mSin3A
Assay: fluorescence polarisation

Chain of PAH2 domain of mSin3A (Q60520 whole entry, the tested form may be a part): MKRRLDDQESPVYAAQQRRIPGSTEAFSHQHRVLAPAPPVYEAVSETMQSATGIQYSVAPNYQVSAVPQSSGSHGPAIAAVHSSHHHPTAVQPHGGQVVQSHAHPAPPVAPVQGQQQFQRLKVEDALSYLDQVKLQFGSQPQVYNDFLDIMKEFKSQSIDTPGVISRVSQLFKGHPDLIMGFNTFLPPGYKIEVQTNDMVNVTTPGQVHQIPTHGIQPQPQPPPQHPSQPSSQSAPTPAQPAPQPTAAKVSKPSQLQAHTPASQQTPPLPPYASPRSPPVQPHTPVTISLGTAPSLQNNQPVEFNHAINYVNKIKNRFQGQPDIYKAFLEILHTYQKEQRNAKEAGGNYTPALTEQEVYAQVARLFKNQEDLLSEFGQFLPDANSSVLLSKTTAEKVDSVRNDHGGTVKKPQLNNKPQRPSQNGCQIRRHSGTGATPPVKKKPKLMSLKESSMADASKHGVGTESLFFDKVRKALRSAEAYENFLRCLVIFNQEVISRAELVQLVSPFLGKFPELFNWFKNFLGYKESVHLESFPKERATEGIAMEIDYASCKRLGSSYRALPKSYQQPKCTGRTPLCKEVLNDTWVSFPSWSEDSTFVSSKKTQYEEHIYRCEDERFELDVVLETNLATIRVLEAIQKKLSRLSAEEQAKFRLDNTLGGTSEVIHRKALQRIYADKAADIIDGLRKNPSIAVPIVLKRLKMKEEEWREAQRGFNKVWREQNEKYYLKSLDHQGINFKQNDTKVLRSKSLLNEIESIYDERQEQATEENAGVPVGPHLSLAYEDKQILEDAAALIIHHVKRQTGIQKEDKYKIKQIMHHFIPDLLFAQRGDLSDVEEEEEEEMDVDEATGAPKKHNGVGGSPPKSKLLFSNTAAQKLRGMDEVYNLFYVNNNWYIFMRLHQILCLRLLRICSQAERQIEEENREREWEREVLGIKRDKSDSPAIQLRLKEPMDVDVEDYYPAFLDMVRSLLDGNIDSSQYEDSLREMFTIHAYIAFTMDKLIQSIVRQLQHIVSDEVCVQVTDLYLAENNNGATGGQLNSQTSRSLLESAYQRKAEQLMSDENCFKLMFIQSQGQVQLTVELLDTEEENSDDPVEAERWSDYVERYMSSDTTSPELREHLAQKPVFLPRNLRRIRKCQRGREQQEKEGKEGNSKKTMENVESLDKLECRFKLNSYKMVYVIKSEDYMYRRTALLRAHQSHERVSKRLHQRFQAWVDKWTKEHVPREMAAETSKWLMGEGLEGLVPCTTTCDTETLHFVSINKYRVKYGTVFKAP

Substance | IC50
PF1-SID peptide | 15.6 µM
Tat-SID (MAD-SID peptide) | 1.26 µM
